Reference: US12247072 (ASHER BIOTHERAPEUTICS, dated 2025)
Changes are numbered by the printed parent chain. Names and notes keep the numbering of the source.

T1: mouse CD8b (mouse, UniProt P10300 22-175, limits assumed)
T1 sequence (looked up): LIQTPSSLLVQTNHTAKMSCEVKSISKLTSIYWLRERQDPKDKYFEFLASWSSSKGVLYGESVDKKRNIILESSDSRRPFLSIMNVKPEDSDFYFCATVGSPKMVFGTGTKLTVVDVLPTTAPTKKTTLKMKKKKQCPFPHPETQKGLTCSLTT

B1: hIL21 v31.23, non-fusion, 8His-tagged (ligand)
chain: QGQDRHMIRMRQLIDIVDQLKNYVNDLVPEFLPAPEDVETNCEWSAFSCFQKAQLKSANTGNNERIINVSIKKLKQKPPGGEGGGGGGGEGGCPSCDSYEKKPPKEFLERFKSLLQKMIHQHLSSRTHGSEDSGGASHHHHHHHH
B2: hIL21 v31.51, non-fusion, 8His-tagged (ligand)
chain: B1 chain with R9G, Q76R
B3: xhCD8v11 (antibody, V domains shown)
VH: EVQLVESGGGLVQPGGSLRLSCAASGFTFSSYAMSWVRQAPGKGLEWVSDITYAGGSTAYADSVKGRFTISRDNAKNSLYLQMNSLRAEDTAVYYCARSNAYAWDDALDIWGQGTLVTVSS
VL: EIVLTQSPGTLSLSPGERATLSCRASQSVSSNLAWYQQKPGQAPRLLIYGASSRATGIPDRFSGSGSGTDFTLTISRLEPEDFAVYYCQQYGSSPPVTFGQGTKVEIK
notes: Anti-human CD8 antibody; human IgG1/kappa
B4: xhCD8-hIL21 v2 (other)
VH: QVHLQQSGPELVKPGASVKMSCKTSGYTFTKYTMHWVKQGHEESLEWIGHFNPNNDETKYNQKFTGKATLTVDKSSTTAYMELRSLTSDDSALYYCARDGLGLRLFADWGQGTLITVSA
VL: DIQMTQSPASLSASVGETVTITCGASENIYGALNWYQRKQGKSPQLLIFGATNLADGVSSRFSGSGSDRQYSLKISSLHPDDVATYYCQNILDTPWTFGGGTKLEIK
chain: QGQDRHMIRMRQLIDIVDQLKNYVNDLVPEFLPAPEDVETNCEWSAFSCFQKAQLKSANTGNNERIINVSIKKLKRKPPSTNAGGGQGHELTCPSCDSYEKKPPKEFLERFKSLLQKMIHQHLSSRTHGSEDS
notes: Human IgG1/kappa, knob-into-hole, L234A/L235A/G237A; also called xhCD8-Fc-hIL21 v2; exemplary IL-21 polypeptide 2
B5: xhCD8-hIL21 v1 (other)
VH: B4 VH
VL: B4 VL
chain: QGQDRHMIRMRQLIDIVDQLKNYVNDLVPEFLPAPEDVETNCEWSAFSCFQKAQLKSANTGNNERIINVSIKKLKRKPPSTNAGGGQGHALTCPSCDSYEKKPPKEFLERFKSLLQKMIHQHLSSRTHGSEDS
notes: Human IgG1/kappa, knob-into-hole, L234A/L235A/G237A; also called exemplary IL-21 polypeptide 1
B6: xhCD8-hIL21 v6 (other)
VH: B4 VH
VL: B4 VL
chain: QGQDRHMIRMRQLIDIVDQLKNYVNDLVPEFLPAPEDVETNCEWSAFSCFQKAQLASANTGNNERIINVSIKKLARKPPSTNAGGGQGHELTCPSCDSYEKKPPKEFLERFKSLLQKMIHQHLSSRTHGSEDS
notes: Human IgG1/kappa, knob-into-hole, L234A/L235A/G237A; also called exemplary IL-21 polypeptide 6
B7: xhCD8.1-hIL21 v29 (other)
VH: QVQLVQSGAEVKKPGSSVKVSCKASGGTFSSYAISWVRQAPGQGLEWMGGIIPGYATANYAQKFQGRVTITADESTSTAYMELSSLRSEDTAVYYCARDAAGIRLFADWGQGTLVTVSS
VL: DIQMTQSPSSLSASVGDRVTITCRASQSIYGALNWYQQKPGKAPKLLIYGASNLQSGVPSRFSGSGSGTDFTLTISSLQPEDFATYYCQSTYTAPWTFGGGTKVEIK
chain: QGQDRHMIRMRQLIDIVDQLKNYVNDLVPEFLPAPEDVETNCEWSAFSCFQKAQLKSANTGNNERIINVSIKKLKRKPPGGGGEGGGGGEGGCPSCDSYEKKPPKEFLERFKSLLQKMIHQHLSSRTHGSEDS
notes: Human IgG1/kappa, knob-into-hole, L234A/L235A/G237A
B8: xhCD8.1 (antibody, V domains shown)
VH: B7 VH
VL: B7 VL
notes: Anti-human CD8 antibody; human IgG1/kappa; also called xhCD8v12; xCtrl (in mouse studies)
B9: xhCD8.1-hIL21 v28 (other)
VH: B7 VH
VL: B7 VL
chain: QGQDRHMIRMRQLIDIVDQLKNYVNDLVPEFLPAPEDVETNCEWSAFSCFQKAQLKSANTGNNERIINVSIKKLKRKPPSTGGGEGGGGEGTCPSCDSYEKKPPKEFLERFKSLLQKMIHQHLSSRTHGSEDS
notes: as for B7
B10: xhCD8.1-hIL21 v30 (other)
VH: B7 VH
VL: B7 VL
chain: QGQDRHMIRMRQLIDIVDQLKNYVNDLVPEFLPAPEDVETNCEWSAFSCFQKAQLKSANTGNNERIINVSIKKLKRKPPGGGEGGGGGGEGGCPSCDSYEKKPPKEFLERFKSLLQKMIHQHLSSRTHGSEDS
notes: as for B7
B11: xhCD8.1-hIL21 v27 (other)
VH: B7 VH
VL: B7 VL
chain: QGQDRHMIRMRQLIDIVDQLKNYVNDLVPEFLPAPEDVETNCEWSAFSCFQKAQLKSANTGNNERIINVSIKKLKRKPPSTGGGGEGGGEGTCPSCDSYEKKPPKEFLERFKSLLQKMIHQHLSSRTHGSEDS
notes: as for B7
B12: xhCD8.1-hIL21 v31 (other)
VH: B7 VH
VL: B7 VL
chain: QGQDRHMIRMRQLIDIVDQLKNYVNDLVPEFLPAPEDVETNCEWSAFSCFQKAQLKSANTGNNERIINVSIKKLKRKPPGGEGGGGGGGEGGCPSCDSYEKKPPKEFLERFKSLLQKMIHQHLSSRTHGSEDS
notes: as for B7

Assays:
[1] = target: Recombinant human IL-21R, extracellular domain fused to 8x Histidine tag (generated in house) (human, UniProt Q9HBE5 20-232); assay: SPR, 25 C
Sequence of Recombinant human IL-21R, extracellular domain fused to 8x Histidine tag (generated in house) (Q9HBE5 other isoform, or with tags, fused parts or gaps limits assumed): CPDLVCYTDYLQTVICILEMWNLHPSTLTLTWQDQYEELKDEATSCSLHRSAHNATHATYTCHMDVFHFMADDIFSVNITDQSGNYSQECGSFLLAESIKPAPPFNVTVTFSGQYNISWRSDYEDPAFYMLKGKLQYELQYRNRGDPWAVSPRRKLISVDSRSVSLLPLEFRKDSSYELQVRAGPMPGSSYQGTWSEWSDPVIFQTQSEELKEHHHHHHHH

mouse CD8 = target: T2, mouse CD8 (mouse, UniProt P01731 28-247; P10300 22-213); assay: not described
T2 construct: copies: 1 + 1
T2 sequence (P01731 28-247 limits assumed, one chain of several): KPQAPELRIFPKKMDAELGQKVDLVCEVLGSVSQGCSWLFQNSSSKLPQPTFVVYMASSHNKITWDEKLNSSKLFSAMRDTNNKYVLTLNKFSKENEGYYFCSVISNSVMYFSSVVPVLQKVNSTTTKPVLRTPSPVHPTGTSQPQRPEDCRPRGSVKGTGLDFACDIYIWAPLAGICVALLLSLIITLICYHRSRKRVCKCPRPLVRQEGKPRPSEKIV

[2] = target: T3, Human IL-21R (Biolegend, Catalog No. 773104) (human, UniProt Q9HBE5 20-232, limits assumed); assay: SPR, 37 C;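 as to Kd: fc fusion proteins captured on an anti-human IgG Fc Biacore surface, 10 min dissociation, double-referenced data fitted to a 1:1 Langmuir model with mass transport, triplicate runs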;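 as to koff: fc fusion proteins captured on an anti-human IgG Fc Biacore surface, 10 min dissociation, double-referenced data fitted to a 1:1 Langmuir model with mass transport, triplicate runs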;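 as to kon: fc fusion proteins captured on an anti-human IgG Fc Biacore surface, 10 min dissociation, double-referenced data fitted to a 1:1 Langmuir model with mass transport, triplicate runs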
T3 construct: Bought; also called human IL-21 receptor
T3 sequence (Q9HBE5 20-232 limits assumed): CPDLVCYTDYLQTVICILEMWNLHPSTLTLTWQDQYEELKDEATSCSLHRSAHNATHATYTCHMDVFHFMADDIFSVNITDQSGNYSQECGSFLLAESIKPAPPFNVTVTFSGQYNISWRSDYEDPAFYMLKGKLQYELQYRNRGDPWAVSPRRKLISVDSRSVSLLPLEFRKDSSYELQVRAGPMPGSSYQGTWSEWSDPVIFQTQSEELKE

[3] = target: T3, Human IL-21R (Biolegend, Catalog No. …); assay: SPR, 37 C; remark: listed apart in the source
mouse CD8b = target: T1, mouse CD8b; assay: not described

Binder | Kd [1] | binding result (mouse CD8) | fold difference of IL-21R affinity against wild type IL-21 [2] | Kd [3] | koff [3] | kon [3] | binding result (mouse CD8b)
B1 | 6060 nM | – | – | – | – | – | –
B2 | 7730 nM | – | – | – | – | – | –
B3 | – | no binding | – | – | – | – | –
B4 | – | – | ≤ 2 fold | 0.122 nM | 0.0011 s⁻¹ | 8.9e+06 M⁻¹ s⁻¹ | –
B5 | – | – | ≤ 2 fold | 0.117 nM | 0.00097 s⁻¹ | 8.3e+06 M⁻¹ s⁻¹ | –
B6 | – | – | ~3 fold | 0.478 nM | 0.0025 s⁻¹ | 5.2e+06 M⁻¹ s⁻¹ | –
B7 | – | – | ≤ 2 fold | 0.094 nM | 0.00119 s⁻¹ | 1.27e+07 M⁻¹ s⁻¹ | –
B8 | – | no binding | – | – | – | – | no binding
B9 | – | – | ≤ 2 fold | 0.106 nM | 0.00139 s⁻¹ | 1.31e+07 M⁻¹ s⁻¹ | –
B10 | – | – | ≤ 2 fold | 0.093 nM | 0.00107 s⁻¹ | 1.16e+07 M⁻¹ s⁻¹ | –
B11 | – | – | ≤ 2 fold | 0.106 nM | 0.00139 s⁻¹ | 1.31e+07 M⁻¹ s⁻¹ | –
B12 | – | – | ≤ 2 fold | 0.094 nM | 0.00113 s⁻¹ | 1.2e+07 M⁻¹ s⁻¹ | –
